Experimental findings from the supplement of paper PMC5998384 are described below.

In series [1] the test system is HeLa Kyoto. The series can be described thus: melting temperature (median over replicates), in situ; higher = more thermally stable.
The subject of series [2] is HeLa Kyoto. As to the kind of experiment: solubility in G1/S (NP-40 vs SDS abundance) (log2 ratio); higher = more soluble. The note with it: cell cycle stage: G1/S.
Series [3] has as its system HeLa Kyoto. As to the kind of experiment: solubility change mitosis vs G1/S (difference of NP-40 vs SDS log2 ratios) (log2 ratio difference); higher = more soluble in mitosis.
Series [4] relates to HeLa Kyoto. As to the kind of experiment: thermal stability score vs G1/S (z-score of summed log2 fold changes over temperatures); higher = more thermally stable than in G1/S.
The mark [5] stands for this setting: cell cycle stage: early G1 (4.5 h after nocodazole release).
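Throughout, for melting temperature (median over replicates), in situ: HeLa Kyoto cells synchronized by double thymidine or nocodazole block, proteins quantified by TMT10plex mass spectrometry, three independent biological replicates.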
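Throughout, for solubility change mitosis vs G1/S (difference of NP-40 vs SDS log2 ratios): synchronized HeLa Kyoto cells (double thymidine block for G1/S, nocodazole release for mitosis), protein amounts in NP-40 versus SDS lysates quantified by mass spectrometry, three biological replicates.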
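Throughout, for solubility in G1/S (NP-40 vs SDS abundance): HeLa Kyoto cells arrested at G1/S by double thymidine block, proteins quantified by TMT10plex mass spectrometry in mild NP-40 versus SDS extracts, three biological replicates.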
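Throughout, for thermal stability score vs G1/S (z-score of summed log2 fold changes over temperatures): synchronized HeLa Kyoto cells, proteins quantified by TMT10plex mass spectrometry, three biological replicates, mitosis taken 0.5 h after nocodazole release, G1/S directly after double thymidine block.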

Turning to “MLRCLYHWHRPVLNRRWSRLCLPKQYLFTMKLQSPEFQSLFTEGLKSLTELFVKENHELRIAGGAVRDLLNGVKPQDIDFATTATPTQMKEMFQSAGIRMINNRGEKHGTITARLHEENFEITTLRIDVTTDGRHAEVEFTTDWQKDAERRDLTINSMFLGFDGTLFDYFNGYEDLKNKKVRFVGHAKQRIQEDYLRILRYFRFYGRIVDKPGDHDPETLEAIAENAKGLAGISGERIWVELKKILVGNHVNHLIHLIYDLDVAPYIGLPANASLEEFDKVSKNVDGFSPKPVTLLASLFKVQDDVTKLDLRLKIAKEEKNLGLFIVKNRKDLIKATDSSDPLKPYQDFIIDSREPDATTRVCELLKYQGEHCLLKEMQQWSIPPFPVSGHDIRKVGISSGKEIGALLQQLREQWKKSGYQMEKDELLSYIKKT [TRNT1]”, the melting temperature stood at 50.9 °C in series [1] (cell cycle stage: G1/S) and 50.2 °C in series [1] (cell cycle stage: mitosis). Besides, the “solubility in G1/S (log2)” value in series [2] was 0.146. Also, in series [3], the “solubility change mitosis (log2)” value is -0.109. In addition, the thermal stability score in series [4] (setting [5]) was found to be 1.75; in series [4] (cell cycle stage: mitosis), 1.59.
Regarding “MSPAPDAAPAPASISLFDLSADAPVFQGLSLVSHAPGEALARAPRTSCSGSGERESPERKLLQGPMDISEKLFCSTCDQTFQNHQEQREHYKLDWHRFNLKQRLKDKPLLSALDFEKQSSTGDLSSISGSEDSDSASEEDLQTLDRERATFEKLSRPPGFYPHRVLFQNAQGQFLYAYRCVLGPHQDPPEEAELLLQNLQSRGPRDCVVLMAAAGHFAGAIFQGREVVTHKTFHRYTVRAKRGTAQGLRDARGGPSHSAGANLRRYNEATLYKDVRDLLAGPSWAKALEEAGTILLRAPRSGRSLFFGGKGAPLQRGDPRLWDIPLATRRPTFQELQRVLHKLTTLHVYEEDPREAVRLHSPQTHWKTVREERKKPTEEEIRKICRDEKEALGQNEESPKQGSGSEGEDGFQVELELVELTVGTLDLCESEVLPKRRRRKRNKKEKSRDQEAGAHRTLLQQTQEEEPSTQSSQAVAAPLGPLLDEAKAPGQPELWNALLAACRAGDVGVLKLQLAPSPADPRVLSLLSAPLGSGGFTLLHAAAAAGRGSVVRLLLEAGADPTVQDSRARPPYTVAADKSTRNEFRRFMEKNPDAYDYNKAQVPGPLTPEMEARQATRKREQKAARRQREEQQQRQQEQEEREREEQRRFAALSDREKRALAAERRLAAQLGAPTSPIPDSAIVNTRRCWSCGASLQGLTPFHYLDFSFCSTRCLQDHRRQAGRPSS [ANKZF1]”, the melting temperature worked out at 49.7 °C in series [1] (cell cycle stage: G1/S) and 50.1 °C in series [1] (cell cycle stage: mitosis). The “solubility in G1/S (log2)” value in series [2] came out at 0.0804. Moreover, the “solubility change mitosis (log2)” value in series [3] is -0.104. For the same substance, the thermal stability score in series [4] (setting [5]) amounted to 0.638; in series [4] (cell cycle stage: mitosis), 1.02.
As for “MAPPVAERGLKSVVWQKIKATVFDDCKKEGEWKIMLLDEFTTKLLASCCKMTDLLEEGITVVENIYKNREPVRQMKALYFITPTSKSVDCFLHDFASKSENKYKAAYIYFTDFCPDNLFNKIKASCSKSIRRCKEINISFIPHESQVYTLDVPDAFYYCYSPDPGNAKGKDAIMETMADQIVTVCATLDENPGVRYKSKPLDNASKLAQLVEKKLEDYYKIDEKSLIKGKTHSQLLIIDRGFDPVSTVLHELTFQAMAYDLLPIENDTYKYKTDGKEKEAILEEEDDLWVRIRHRHIAVVLEEIPKLMKEISSTKKATEGKTSLSALTQLMKKMPHFRKQITKQVVHLNLAEDCMNKFKLNIEKLCKTEQDLALGTDAEGQKVKDSMRVLLPVLLNKNHDNCDKIRAILLYIFSINGTTEENLDRLIQNVKIENESDMIRNWSYLGVPIVPQSQQGKPLRKDRSAEETFQLSRWTPFIKDIMEDAIDNRLDSKEWPYCSQCPAVWNGSGAVSARQKPRANYLEDRKNGSKLIVFVIGGITYSEVRCAYEVSQAHKSCEVIIGSTHVLTPKKLLDDIKMLNKPKDKVSLIKDE [STXBP3]”, the melting temperature in series [1] (cell cycle stage: G1/S) and in series [1] (cell cycle stage: mitosis) was 49 °C each time. Further, in series [2], the “solubility in G1/S (log2)” value is -0.0906. Besides, in series [3], the “solubility change mitosis (log2)” value is -0.0474. The thermal stability score in series [4] (setting [5]) was -0.14; in series [4] (cell cycle stage: mitosis), 0.708.
Regarding “MSEGVDLIDIYADEEFNQDPEFNNTDQIDLYDDVLTATSQPSDDRSSSTEPPPPVRQEPSPKPNNKTPAILYTYSGLRNRRAAVYVGSFSWWTTDQQLIQVIRSIGVYDVVELKFAENRANGQSKGYAEVVVASENSVHKLLELLPGKVLNGEKVDVRPATRQNLSQFEAQARKRECVRVPRGGIPPRAHSRDSSDSADGRATPSENLVPSSARVDKPPSVLPYFNRPPSALPLMGLPPPPIPPPPPLSSSFGVPPPPPGIHYQHLMPPPPRLPPHLAVPPPGAIPPALHLNPAFFPPPNATVGPPPDTYMKASAPYNHHGSRDSGPPPSTVSEAEFEDIMKRNRAISSSAISKAVSGASAGDYSDAIETLLTAIAVIKQSRVANDERCRVLISSLKDCLHGIEAKSYSVGASGSSSRKRHRSRERSPSRSRESSRRHRDLLHNEDRHDDYFQERNREHERHRDRERDRHH [CPSF7]”, the melting temperature in series [1] (cell cycle stage: G1/S) turned out to be 51.8 °C; in series [1] (cell cycle stage: mitosis), 52.1 °C. Also, the “solubility in G1/S (log2)” value in series [2] was -0.309. In series [3], the “solubility change mitosis (log2)” value is 0.173. The figures for the thermal stability score in series [4] (setting [5]) and in series [4] (cell cycle stage: mitosis) were -1.14 and -2.91, respectively.
For the substance RREB1, the figures for the melting temperature in series [1] (cell cycle stage: G1/S) and in series [1] (cell cycle stage: mitosis) were 49.4 °C and 50.8 °C, respectively. Also, the “solubility in G1/S (log2)” value in series [2] was -0.318. In addition, the “solubility change mitosis (log2)” value in series [3] came to 0.214. Moreover, the thermal stability score in series [4] (setting [5]) worked out at 0.176; in series [4] (cell cycle stage: mitosis), 1.2.
In the case of “MALLCLDGVFLSSAENDFVHRIQEELDRFLLQKQLSKVLLFPPLSSRLRYLIHRTAENFDLLSSFSVGEGWKRRTVICHQDIRVPSSDGLSGPCRAPASCPSRYHGPRPISNQGAAAVPRGARAGRWYRGRKPDQPLYVPRVLRRQEEWGLTSTSVLKREAPAGRDPEEPGDVGAGDPNSDQGLPVLMTQGTEDLKGPGQRCENEPLLDPVGPEPLGPESQSGKGDMVEMATRFGSTLQLDLEKGKESLLEKRLVAEEEEDEEEVEEDGPSSCSEDDYSELLQEITDNLTKKEIQIEKIHLDTSSFVEELPGEKDLAHVVEIYDFEPALKTEDLLATFSEFQEKGFRIQWVDDTHALGIFPCLASAAEALTREFSVLKIRPLTQGTKQSKLKALQRPKLLRLVKERPQTNATVARRLVARALGLQHKKKERPAVRGPLPP [R3HCC1]”, the melting temperature in series [1] (cell cycle stage: mitosis) is 51.1 °C. Further, the “solubility in G1/S (log2)” value in series [2] was -0.047. Besides, the “solubility change mitosis (log2)” value in series [3] was -0.0167. Further, the thermal stability score in series [4] (setting [5]) is -0.563; in series [4] (cell cycle stage: mitosis), -0.284.
In the case of “MLSLLVWILTLSDTFSQGTQTRFSQEPADQTVVAGQRAVLPCVLLNYSGIVQWTKDGLALGMGQGLKAWPRYRVVGSADAGQYNLEITDAELSDDASYECQATEAALRSRRAKLTVLIPPEDTRIDGGPVILLQAGTPHNLTCRAFNAKPAATIIWFRDGTQQEGAVASTELLKDGKRETTVSQLLINPTDLDIGRVFTCRSMNEAIPSGKETSIELDVHHPPTVTLSIEPQTVQEGERVVFTCQATANPEILGYRWAKGGFLIEDAHESRYETNVDYSFFTEPVSCEVHNKVGSTNVSTLVNVHFAPRIVVDPKPTTTDIGSDVTLTCVWVGNPPLTLTWTKKDSNMVLSNSNQLLLKSVTQADAGTYTCRAIVPRIGVAEREVPLYVNGPPIISSEAVQYAVRGDGGKVECFIGSTPPPDRIAWAWKENFLEVGTLERYTVERTNSGSGVLSTLTINNVMEADFQTHYNCTAWNSFGPGTAIIQLEEREVLPVGIIAGATIGASILLIFFFIALVFFLYRRRKGSRKDVTLRKLDIKVETVNREPLTMHSDREDDTASVSTATRVMKAIYSSFKDDVDLKQDLRCDTIDTREEYEMKDPTNGYYNVRAHEDRPSSRAVLYADYRAPGPARFDGRPSSRLSHSSGYAQLNTYSRGPASDYGPEPTPPGPAAPAGTDTTSQLSYENYEKFNSHPFPGAAGYPTYRLGYPQAPPSGLERTPYEAYDPIGKYATATRFSYTSQHSDYGQRFQQRMQTHV [KIRREL]”, the melting temperature amounted to 52 °C in series [1] (cell cycle stage: G1/S) and 52.2 °C in series [1] (cell cycle stage: mitosis). Besides, the “solubility in G1/S (log2)” value in series [2] was -0.151. Moreover, the “solubility change mitosis (log2)” value in series [3] was found to be 0.0763. The thermal stability score in series [4] (setting [5]) is -1.16; in series [4] (cell cycle stage: mitosis) it was -0.769.
